Assay results reported in patent US20240002547A1 (AEBI, published 2024).
Positions of bridges follow the written chain, without caps; N, C: chain ends. No end group written: not given here.

Target: human eukaryotic elongation factor 2 (eEF2) (human, UniProt P13639 2-858)
Assay: peptide screening by the technique of WO 2007/010525

Binder | binding result
CRRGSRASGAHC (disulfide 1-12 (inferred)) [Tox2] | binds
CSARWGPTMPWC (disulfide 1-12 (inferred)) [Tox1] | binds
